{"source": "patent US12599654B2", "about": "“Immunogenic peptide fragments of metalloprotease ADAMTS-7 and uses thereof in anti-atherosclerosis and related diseases” (BEIJING KIMWAY BIOTECH CO. LTD, priority 2019, dated 2026)", "origin": "cited, not measured here", "target": "T1, proprotein convertase subtilisin/kexin type 9 (PCSK9) (Homo sapiens, UniProt Q8NBP7)", "T1 construct": "host or cells: human trial subjects (endogenous circulating PCSK9)", "details": "low-dose, phase I clinical trials; cited from earlier work", "data": [{"substance": "REGN727: monoclonal antibody against the proprotein convertase subtilisin/kexin type 9 (PCSK9)", "values": [{"measurement": "reduction of LDL level of subjects", "value": "more than 30%"}]}]}
